Measured values published in publication PMC5445279, “Proanthocyanidin accumulation and transcriptional responses in the seed coat of cranberry beans (Phaseolus vulgaris L.) with different susceptibility to postharvest darkening” (BMC Plant Biology, 2017).

Legend:
PvANR1 = molecular target: T1, PvANR1 (Phaseolus vulgaris, UniProt A0A1V0E4B3); experiment: HPLC-DAD of epicatechin formation, substrate-inhibition fit; format: biochemical; settings: substrate inhibition by cyanidin, product epicatechin; 800 μM NADPH, 50 mM HEPES pH 7.0, 30 °C; apparent
T1 construct: gene ANR1; full ORF (1014 bp PCR product) from seed coat cDNA, pET-30b, E. coli BL21; N-terminal His6 tag cut by enterokinase; forward primer encodes MATVKKIGK
Description: (§1) HPLC-DAD of epicatechin formation, substrate-inhibition fit on PvANR1

[1] = substrate: NC(=O)C1=CN([C@@H]2O[C@H](COP(=O)(O)OP(=O)(O)OC[C@H]3O[C@@H](n4cnc5c(N)ncnc54)[C@H](OP(=O)(O)O)[C@@H]3O)[C@@H](O)[C@H]2O)C=CC1; experiment: HPLC-DAD of epicatechin formation, Hill fit; format: biochemical, Phaseolus vulgaris; settings: product epicatechin, 100 μM cyanidin, 50 mM HEPES pH 7.0, 30 °C, Hill coefficient 2.5, varied: cofactor
Description: HPLC-DAD of epicatechin formation, Hill fit on PvANR1

[2] = substrate: Oc1cc(O)c2cc(O)c(-c3ccc(O)c(O)c3)[o+]c2c1; experiment: HPLC-DAD of epicatechin formation, substrate-inhibition fit; format: biochemical, Phaseolus vulgaris; settings: product epicatechin, 800 μM NADPH, 50 mM HEPES pH 7.0, 30 °C, apparent, substrate inhibition model
Description: as §1

Molecule | K i (PvANR1) | K0.5 [1] | Vmax [1] | kcat [1] | kcat/Km [1] | K0.5 [2] | Vmax [2] | kcat [2] | kcat/Km [2]
Oc1cc(O)c2cc(O)c(-c3ccc(O)c(O)c3)[o+]c2c1 [cyanidin] | 631.5 ± 119.9 µM |  |  |  |  |  |  |  | 
PvANR1 (Phaseolus vulgaris) (protein, full ORF (1014 bp PCR product) from seed coat cDNA, pET-30b, E. coli BL21; N-terminal His6 tag cut by enterokinase; forward primer encodes MATVKKIGK) MATVKKIGKKACVIGGSGFMASCLVKQLLHKGYAVNTTVRDPDNAKKISHLLALQSLGDLNIFGADLTGERDFDAPIAGCELVFQLATPVNFASEDPENDMIKPAISGVLNVLKACARAKGVKRVILTSSAAAVTINPVKDTGLVMDESNWTDVEFLNTAKPPTWGYPVSKALAEKAAWKFAEENHIDLITVIPTLTTGPSLTPDIPSSVGLATSLITGNDFLINALKGMQFLSGSISITHVEDICRAHIFVAENESASGRYIVSSHSTSVPELAKFLSKRYPQYKVPTEFDDCPSKAKLTISSEKLVKEGFSFKYGIEEIYDQSVEYLKSKGALKN |  | 103.5 ± 7.4 µM | 0.00334 µmol/min/mg | 0.0021 ± 0.0001 s⁻¹ | 20.1 ± 0.49 M⁻¹ s⁻¹ | 114.2 ± 19.0 µM | 0.0116 µmol/min/mg | 0.0072 ± 0.0007 s⁻¹ | 65.4 ± 13.8 M⁻¹ s⁻¹
